Source: the supplement of paper PMC9233669
Variants at the floor of the assay were thinned out.

Legend:
biotinyl-Phe-oxazolone = assay: self-aminoacylation, catalytic enhancement (BFO) (fold over background); higher = more active; k-Seq, kA / k0A0; sequences stand for … in GGGAAUGGAUCCACAUCUACGAAUUC…UUCACUGCAGACUUGACGAAGCUG
In short: (§1)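 Catalytic enhancement equals the median kA over the uncatalyzed rate, the latter read from the low-activity peak of a bimodal Gaussian fit. Values of kA came from fitting each sequence's fraction reacted to a pseudo-first-order model, with 1000 bootstraps. Reacted RNA was captured with streptavidin and quantified by triplicate qPCR and Illumina sequencing after 90 minutes at room temperature with 2–1250 μM biotinyl-aminoacyl-oxazolone and 0.43 μM mutagenized RNA pools bearing a 21-nt variable region.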

biotinyl-Ile-oxazolone = assay: self-aminoacylation, catalytic enhancement (BIO) (fold over background); higher = more active; k-Seq, kA / k0A0; sequences stand for … in GGGAAUGGAUCCACAUCUACGAAUUC…UUCACUGCAGACUUGACGAAGCUG
In short: as §1

biotinyl-Met-oxazolone = assay: self-aminoacylation, catalytic enhancement (BMO) (fold over background); higher = more active; k-Seq, kA / k0A0; sequences stand for … in GGGAAUGGAUCCACAUCUACGAAUUC…UUCACUGCAGACUUGACGAAGCUG
In short: as §1

biotinyl-Val-oxazolone = assay: self-aminoacylation, catalytic enhancement (BVO) (fold over background); higher = more active; k-Seq, kA / k0A0; sequences stand for … in GGGAAUGGAUCCACAUCUACGAAUUC…UUCACUGCAGACUUGACGAAGCUG
In short: as §1

biotinyl-Leu-oxazolone = assay: self-aminoacylation, catalytic enhancement (BLO) (fold over background); higher = more active; k-Seq, kA / k0A0; sequences stand for … in GGGAAUGGAUCCACAUCUACGAAUUC…UUCACUGCAGACUUGACGAAGCUG
In short: as §1

biotinyl-Trp-oxazolone = assay: self-aminoacylation, catalytic enhancement (BWO) (fold over background); higher = more active; k-Seq, kA / k0A0; sequences stand for … in GGGAAUGGAUCCACAUCUACGAAUUC…UUCACUGCAGACUUGACGAAGCUG
In short: as §1

Sequence	self-aminoacylation (biotinyl-Phe-oxazolone)	self-aminoacylation (biotinyl-Ile-oxazolone)	self-aminoacylation (biotinyl-Met-oxazolone)	self-aminoacylation (biotinyl-Val-oxazolone)	self-aminoacylation (biotinyl-Leu-oxazolone)	self-aminoacylation (biotinyl-Trp-oxazolone)
CUACUUCAAACGAUCGCUCUG [Fam1A.1 aminoacylation ribozyme variant]	1.11	0.842	0.689	0.838	0.654	0.678
AUUCACCUAAGGCAUCGGGUG [Fam2.2 aminoacylation ribozyme variant]	26.5	2.69	3.3	3.31	4.9	3.67
UUUCACCUAGGUCAUCGGGCG [Fam2.2 aminoacylation ribozyme variant]	4.77	3.06	4.77	3.19	5.21	4.57
AAGUAUGCUAAUAGGCGCAAG [Fam3.1 aminoacylation ribozyme variant]	0.856	0.992	0.748	1.18	1.08	1.58
AUUAACCUAGGUCAUCGGGCG [Fam2.2 aminoacylation ribozyme variant]	4.51	2.55	3.99	2.63	5.44	2.17
CUACUUCAAACAAUCGUUCCG [Fam1A.1 aminoacylation ribozyme variant]	0.562	0.724	0.516	0.66	0.786	0.587
AUUCACCUAGGCCAUCGCGUG [Fam2.2 aminoacylation ribozyme variant]	31.6	4.69	4.45	4.15	6.31	3.85
AUCCACCUUGGUCAUCGGGUG [Fam2.2 aminoacylation ribozyme variant]	45.5	4.12	6.42	5.35	7.29	6.99
CUACUUCAAGCACUCGGUCUG [Fam1A.1 aminoacylation ribozyme variant]	2.08	1.23	0.971	1.3	1.17	1.28
CUUGCCCUGGUCAUCGAGUGA [Fam2.1 aminoacylation ribozyme variant]	64.3	6.56	15.4	7.34	14.7	16.5
AUUCCCCUAGGUUAUCGGGUG [Fam2.2 aminoacylation ribozyme variant]	187	12.9	20	13.3	27.6	20
AUUACCCCGGUCAUCGAGUGG [Fam2.1 aminoacylation ribozyme variant]	4.86	0.919	1.25	1.13	2.42	0.999
AAGAUUGCUACUAGUCGCAAG [Fam3.1 aminoacylation ribozyme variant]	2.44	1.55	1.27	1.32	1.73	1.98
CCACACUUCAAGCAAACGGUC [Fam1B.1 aminoacylation ribozyme variant]	1.02	0.624	0.511	0.755	0.535	0.599
CUACUUCAACCAAUCGGUCUU [Fam1A.1 aminoacylation ribozyme variant]	16	1.02	0.975	0.934	1.32	8.43
CUACUCCAAACAAUCGGUCUC [Fam1A.1 aminoacylation ribozyme variant]	2.41	0.71	0.753	0.723	0.513	1.34
CCACGCUUCAUGCAAUCGGUC [Fam1B.1 aminoacylation ribozyme variant]	0.756	0.812	0.782	1.06	0.749	0.507
CUACUUCAAACAAGCGGUUUG [Fam1A.1 aminoacylation ribozyme variant]	0.557	0.89	0.637	0.701	0.705	0.559
AAGUUUGCUAAUAGUCGCGGG [Fam3.1 aminoacylation ribozyme variant]	19.6	4.43	4.13	3.77	4.5	4.82
CUACUUCAAACAAACGGUCGG [Fam1A.1 aminoacylation ribozyme variant]	0.694	1.05	0.726	0.944	0.809	0.585
AUUCACCUAGGUCUACGGGUG [Fam2.2 aminoacylation ribozyme variant]	27.6	3.16	4.62	3.11	4.92	4.07
AAGUCUGCUAAUAGUCGCAAC [Fam3.1 aminoacylation ribozyme variant]	1.39	1.03	1.04	1.06	1.39	0.655
CUACACUUCAAGCAAUCGGCC [Fam1B.1 aminoacylation ribozyme variant]	6.22	1.82	1.69	1.75	2.41	5.03
CUACUUGAAACAAUCGGUUUG [Fam1A.1 aminoacylation ribozyme variant]	0.458	0.907	0.938	0.77	0.89	0.944
AAGUUUGAUAAUAGUCGUAAG [Fam3.1 aminoacylation ribozyme variant]	1.38	0.716	0.625	0.603	0.65	0.783
ACUACCCUGGUCAUCGUGUGA [Fam2.1 aminoacylation ribozyme variant]	24.4	1.58	4.14	2.33	3.39	3.83

Sequence	self-aminoacylation (biotinyl-Phe-oxazolone)	self-aminoacylation (biotinyl-Ile-oxazolone)	self-aminoacylation (biotinyl-Met-oxazolone)	self-aminoacylation (biotinyl-Val-oxazolone)	self-aminoacylation (biotinyl-Leu-oxazolone)	self-aminoacylation (biotinyl-Trp-oxazolone)
AUUACCCUGGUCACCUAGUGA [Fam2.1 aminoacylation ribozyme variant]	25.9	2.12	4.99	2.49	4.95	5.72
CUUGUUCAAACAAUCGGUCUG [Fam1A.1 aminoacylation ribozyme variant]	5.84	1.07	0.957	0.967	1.18	3.07
AUUCACCCAGGUCAUCUGGUG [Fam2.2 aminoacylation ribozyme variant]	28.2	2.35	3.99	2.25	4.84	3
AUUACCCUGGUCAUCAAGCGA [Fam2.1 aminoacylation ribozyme variant]	0.84	0.846	1	1.13	0.895	0.661
AUUCACCUAUGUGAUCGGGUG [Fam2.2 aminoacylation ribozyme variant]	15.9	1.69	2.14	1.99	2.74	2.25
CCAAACUUCUAGCAAUCGGUC [Fam1B.1 aminoacylation ribozyme variant]	1.01	0.961	0.839	0.952	0.733	0.667
AUUCACCUGCGUCAUCGGGUG [Fam2.2 aminoacylation ribozyme variant]	49.4	5.17	7.79	5.41	10.6	7.09
AAGUUUGCUAACAGUCGCAAU [Fam3.1 aminoacylation ribozyme variant]	0.994	1.13	1.22	0.959	0.968	1.58
AUUCACCUAGGGCGUCGGGUG [Fam2.2 aminoacylation ribozyme variant]	9.76	1.73	2.21	1.84	2.92	1.83
CCAUACUUCAAGCAAUCGGUG [Fam1B.1 aminoacylation ribozyme variant]	24.4	4.16	5.58	4.3	8.33	6.14
CCACACUUGAGGCAAUCGGUC [Fam1B.1 aminoacylation ribozyme variant]	1.28	1.63	1.48	1.81	1.6	1.86
CCGCAUUUCAAGCAAUCGGUC [Fam1B.1 aminoacylation ribozyme variant]	16.8	2.36	1.92	2.48	2.72	14.3
CUUCACCUAGGACAUCGGGUG [Fam2.2 aminoacylation ribozyme variant]	14.1	2.34	3.03	2.68	3.53	3.31
AAGUGUGCUAAGAGUCGCAAG [Fam3.1 aminoacylation ribozyme variant]	5.24	1.11	1.15	0.87	1.13	2.15
CCACACUUCAAGAAAGCGGUC [Fam1B.1 aminoacylation ribozyme variant]	0.498	0.839	0.66	0.716	0.784	0.407
CCACCCUUGAAGCAAUCGGUC [Fam1B.1 aminoacylation ribozyme variant]	0.764	1	0.972	1.74	1.12	1.34
AUUACCCUGAUCAUAGAGUGA [Fam2.1 aminoacylation ribozyme variant]	70.5	6.32	15.8	6.89	15.1	17.7
UAGUUUGCCAAUAGUCGCAAG [Fam3.1 aminoacylation ribozyme variant]	2.96	1.61	1.77	1.61	1.87	1.99
AGCCACCUAGGUCAUCGGGUG [Fam2.2 aminoacylation ribozyme variant]	81.6	6.24	7.16	6.3	8.17	10.3
AUUACUCCGGUCAUCGAGUGA [Fam2.1 aminoacylation ribozyme variant]	16	2.81	5.22	2.64	5.43	5.76
CUACUUUAAUCAAUCGGUCUG [Fam1A.1 aminoacylation ribozyme variant]	1.43	0.955	0.892	0.915	0.78	0.755
AUUCACCUAGGUCAUCGUGUG [Fam2.2 aminoacylation ribozyme variant]	2.56	0.867	0.951	0.932	1.07	0.654
CCACACUUAAAGGAAUCGGUC [Fam1B.1 aminoacylation ribozyme variant]	0.88	1.12	0.953	1.01	0.906	0.763
ACGUUUGCUAUUAGUCGCAAG [Fam3.1 aminoacylation ribozyme variant]	1.31	1.5	1.67	1.21	1.18	2.22
CUACUUCAAACGACCGGUCUG [Fam1A.1 aminoacylation ribozyme variant]	0.832	0.601	0.698	0.74	0.621	0.229
